Measurements from paper PMC12079668.

B1: mouse Cavin1 HR1 domain (residues 45–155), His-Ub-tagged, O54724 K115Q; R117Q; K118Q; K124Q; R127Q (protein)
chain: LIKSDQVNGVLVLSLLDKIIGAVDQIQLTQAQLEERQAEMEGAVQSIQGELSKLGKAHATTSNTVSKLLEQVQQVSVNVQTVQGSLERQAGQIKKLEVNEAELLRRRNFKV
B2: Nanobody NbB7 (VHH)
VHH: QVQLQESGGGLVQAGGSLRLSCAVSGIRVNVNAMYWYRQAPGKQRELVAIITTFGSTNYADSAKGRFTISRDNTKNTVYLQMDNLKPEDTAVYYCNAPQFTDRYWGQGTQVTVSS

Experiments:
nanobody NbB7 = test: ITC; details: chain shown with the change
[1] = molecular target: T1, zebrafish Cavin4a HR1 domain (residues 16-123) (zebrafish) (UniProt A1L260); test: ITC; NbA12 at 500 μM or NbB7 at 400 μM titrated into 30 μM (monomer) cavin HR1 domain or His-MBP full-length mC1; GF150 buffer (20 mM HEPES pH 7.4, 150 mM NaCl), 25°C; fitted with a 1:1 binding ratio
T1 sequence: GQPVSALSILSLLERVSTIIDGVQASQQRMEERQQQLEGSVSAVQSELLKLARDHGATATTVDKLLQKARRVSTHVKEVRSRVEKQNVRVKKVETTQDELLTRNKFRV

Binder	Kd (nanobody NbB7)	Kd [1]
B1	892 nM	–
B2	–	1490 nM
